These results are taken from patent publication US20150291692A1 (INNATE PHARMA, published 2015).

Numbering of substitutions follows the chain as printed.

The koff is a measure of how fast the partners let go of each other.

For assay [1], the target named is T1, NK cells, including normal KIR3DL2+ NK cells (Homo sapiens, UniProt P43630).
T1 construct: full-length receptor on the cell surface; also called gate NK GaM PE+; KIR3DL2 on CD4-negative NK cells in the blood of the Sezary Syndrome patient
The assay is described as follows: flow cytometry of whole blood of a Sezary Syndrome patient, antibody + GaM-PE against CD4; lower gate (CD4-negative NK cells). Background: Flow cytometry measures light scatter and fluorescence of single cells or particles in a stream.

The target of assay [2] is T2, KIR3DL2 at the surface of HUT78 Sezary Syndrome cell line (human, UniProt P43630 22-455).
T2 construct: whole, on cells; Two alleles are expressed
The assay is described as follows: flow cytometry competition on HUT78 cells; naked antibody titrated against 15C11-PE (5 µg/ml).

The target in assay [3] is T3, KIR3DL1 expressed on cells (human, UniProt P43629 22-444).
T3 construct: also called HEK-293T/KIR3DL1
The experiment in a line: flow cytometry on HEK KIR3DL1 cells (row HEK-KIR3DL1).

The target of assay [4] is T4, KIR3DL2 mutant M11A4 (E130S;H131S;R145S) (human, UniProt P43630 22-455).
T4 construct: Expressed on transfected HEK-293T cells; also called Number 27 (11A4)
The assay is described as follows: flow cytometry on HEK-293T cells transfected with the mutant; - means substantially complete loss of binding.

Assay [5] addresses T5, KIR3DL2 mutant M11 (P179T;S181T) (human, UniProt P43630 22-455).
T5 construct: Expressed on transfected HEK-293T cells; also called Number 11; mutant 11
The assay is described as above.

In assay [6] the target is T6, KIR3DL2 mutant M8 + 11 (V127I;P179T;S181T) (human, UniProt P43630 22-455).
T6 construct: Expressed on transfected HEK-293T cells; also called Number 23 (8 + 11)
Described as above.

The target in assay [7] is T7, KIR3DL2 on fresh Sezary Syndrome cells of patients (human, UniProt P43630 22-455).
T7 construct: whole, on cells; also called SS cells
The assay is described as follows: flow cytometry of whole blood of a Sezary Syndrome patient, antibody + GaM-PE against CD4; upper gate (CD4+ KIR3DL2+ leukemic Sezary cells).

The target in assay [8] is T8, KIR3DL2 mutant M10 (R136K;E141K) (human, UniProt P43630 22-455).
T8 construct: Expressed on transfected HEK-293T cells; also called Number 10
The assay is described as follows: flow cytometry on HEK-293T cells transfected with the mutant; + no significant loss of binding, ± decrease.

Assay [9] has as its target T9, KIR3DL2 mutant M11A3 (N99S;H100S;Q184A) (human, UniProt P43630 22-455).
T9 construct: Expressed on transfected HEK-293T cells; also called Number 26 (11A3)
Described as above.

Assay [10] has as its target T10, KIR3DL2 mutant M7 (L113V;T118R) (human, UniProt P43630 22-455).
T10 construct: Expressed on transfected HEK-293T cells; also called Number 7
Described as above.

In assay [11] the target is T11, KIR3DL2 mutant M9 (L164M;P166L;V167A) (human, UniProt P43630 22-455).
T11 construct: Expressed on transfected HEK-293T cells; also called Number 9
The assay is described as above.

The target in assay [12] is T12, KIR3DL2 mutant M11A5 (V147A;Q149S) (human, UniProt P43630 22-455).
T12 construct: Expressed on transfected HEK-293T cells; also called Number 28 (11A5)
The description is as above.

For assay [13], the target named is T13, KIR3DL2 mutant M11A6 (I150A;M128A) (human, UniProt P43630 22-455).
T13 construct: Expressed on transfected HEK-293T cells; also called Number 29 (11A6)
The assay is described as above.

Assay [14] addresses T14, KIR3DL2 recombinant protein (R&D Systems) (human, UniProt P43630 28-340).
T14 construct: Bought protein; also called rec KIR3DL2; recombinant KIR3DL2-Fc fusion protein; not shown: Fc part of the bought fusion protein; not described
The assay is described as follows: SPR (Biacore T100), antibody injected over immobilised recombinant KIR3DL2, bivalent affinity, pH 7.2.

In assay [15] the target is T15, wild-type human KIR3DL2 (allele *002) expressed on transfected HEK-293T cells (human, UniProt P43630 22-455).
T15 construct: also called HEK-293T/KIR3DL2; WTaKIR3DL2
The assay is described as follows: flow cytometry on transfected HEK-293T cells.

Assay [16] has as its target T16, KIR3DL2 mutant M5 + 11 (P66T;P179T;S181T) (human, UniProt P43630 22-455).
T16 construct: Expressed on transfected HEK-293T cells; also called Number 22 (5 + 11)
The experiment in a line: flow cytometry on HEK-293T cells transfected with the mutant; - means substantially complete loss of binding.

Assay [17] has as its target T17, KIR3DL2 mutant M11A1 (V178A;H180S) (human, UniProt P43630 22-455).
T17 construct: Expressed on transfected HEK-293T cells; also called Number 24 (11A1); mutant 11A1
Described as above.

For assay [18], the target named is T4, KIR3DL2 mutant M11A4 (E130S;H131S;R145S). The assay is described as follows: flow cytometry on HEK-293T cells transfected with the mutant; + no significant loss of binding, ± decrease.
The target in assay [19] is T18, KIR3DL2 mutant M8 (V127I) (human, UniProt P43630 22-455).
T18 construct: Expressed on transfected HEK-293T cells; also called Number 8; Mutant 8
The description is as above.

Assay [20] concerns the target T14, KIR3DL2 recombinant protein (R&D …). The experiment in a line: SCK kinetic method.
Assay [21] has the same target. The experiment in a line: regular kinetic method.

T14 sequence (P43630 28-340 A108T): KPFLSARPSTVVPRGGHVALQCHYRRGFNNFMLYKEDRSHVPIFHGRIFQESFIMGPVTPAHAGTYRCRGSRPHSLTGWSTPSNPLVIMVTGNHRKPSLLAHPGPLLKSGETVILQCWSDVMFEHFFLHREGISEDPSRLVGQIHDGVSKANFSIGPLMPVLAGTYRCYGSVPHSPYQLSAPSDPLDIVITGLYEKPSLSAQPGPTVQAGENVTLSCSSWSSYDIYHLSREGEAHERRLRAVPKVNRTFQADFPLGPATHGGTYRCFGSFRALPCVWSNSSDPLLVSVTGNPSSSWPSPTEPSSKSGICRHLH
T8 sequence (P43630 22-455 R157K/E162K): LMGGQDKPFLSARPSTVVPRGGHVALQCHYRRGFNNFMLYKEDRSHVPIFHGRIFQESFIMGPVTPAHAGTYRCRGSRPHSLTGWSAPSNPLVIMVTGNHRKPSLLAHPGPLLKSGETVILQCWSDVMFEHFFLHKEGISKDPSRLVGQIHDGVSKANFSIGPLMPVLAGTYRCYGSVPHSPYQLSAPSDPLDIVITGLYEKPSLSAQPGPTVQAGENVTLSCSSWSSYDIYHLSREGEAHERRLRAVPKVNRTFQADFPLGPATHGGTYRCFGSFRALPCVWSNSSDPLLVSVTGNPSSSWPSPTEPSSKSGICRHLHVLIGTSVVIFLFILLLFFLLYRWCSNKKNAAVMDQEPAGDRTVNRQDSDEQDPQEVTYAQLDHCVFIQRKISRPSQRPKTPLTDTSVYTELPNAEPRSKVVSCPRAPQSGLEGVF
T11 sequence (P43630 22-455 L185M/P187L/V188A): as the sequence (P43630 22-455 R157K/E162K) above, with K136R, K141E, L164M, P166L, V167A counted along it
T7 sequence (P43630 22-455): as the sequence (P43630 22-455 R157K/E162K) above, with K136R, K141E counted along it
T1 sequence (P43630 22-455 limits assumed): as the sequence (P43630 22-455 R157K/E162K) above, with K136R, K141E counted along it
T3 sequence (P43629 22-444 limits assumed): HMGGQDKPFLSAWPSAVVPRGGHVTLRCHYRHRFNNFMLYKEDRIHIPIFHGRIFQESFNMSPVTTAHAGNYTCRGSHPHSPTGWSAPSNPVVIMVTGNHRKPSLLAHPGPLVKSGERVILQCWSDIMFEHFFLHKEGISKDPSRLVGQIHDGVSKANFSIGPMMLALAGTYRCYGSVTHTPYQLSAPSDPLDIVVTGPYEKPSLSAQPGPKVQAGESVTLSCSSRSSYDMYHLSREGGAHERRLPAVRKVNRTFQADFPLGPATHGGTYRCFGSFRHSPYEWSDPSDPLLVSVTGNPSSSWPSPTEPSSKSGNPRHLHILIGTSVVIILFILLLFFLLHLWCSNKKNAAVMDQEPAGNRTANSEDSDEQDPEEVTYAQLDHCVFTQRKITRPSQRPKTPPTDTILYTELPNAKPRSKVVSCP
T13 sequence (P43630 22-455 M149A/I171A): as the sequence (P43630 22-455 R157K/E162K) above, with M128A, K136R, K141E, I150A counted along it
T12 sequence (P43630 22-455 V168A/Q170S): as the sequence (P43630 22-455 R157K/E162K) above, with K136R, K141E, V147A, Q149S counted along it
T5 sequence (P43630 22-455 P200T/S202T): as the sequence (P43630 22-455 R157K/E162K) above, with K136R, K141E, P179T, S181T counted along it
T10 sequence (P43630 22-455 L134V/T139R): as the sequence (P43630 22-455 R157K/E162K) above, with L113V, T118R, K136R, K141E counted along it
T6 sequence (P43630 22-455 V148I/P200T/S202T): as the sequence (P43630 22-455 R157K/E162K) above, with V127I, K136R, K141E, P179T, S181T counted along it
T9 sequence (P43630 22-455 N120S/H121S/Q205A): as the sequence (P43630 22-455 R157K/E162K) above, with N99S, H100S, K136R, K141E, Q184A counted along it
T4 sequence (P43630 22-455 E151S/H152S/R166S): as the sequence (P43630 22-455 R157K/E162K) above, with E130S, H131S, K136R, K141E, R145S counted along it
T17 sequence (P43630 22-455 V199A/H201S): as the sequence (P43630 22-455 R157K/E162K) above, with K136R, K141E, V178A, H180S counted along it
T2 sequence (P43630 22-455): as the sequence (P43630 22-455 R157K/E162K) above, with K136R, K141E counted along it
T16 sequence (P43630 22-455 P87T/P200T/S202T): as the sequence (P43630 22-455 R157K/E162K) above, with P66T, K136R, K141E, P179T, S181T counted along it
T18 sequence (P43630 22-455 V148I): as the sequence (P43630 22-455 R157K/E162K) above, with V127I, K136R, K141E counted along it

B1: antibody 19H12 (antibody, mouse IgG2b, V domains shown)
VH: QIQLVQSGPELKKPGETVKISCKASGYTFTNFGMNWVKQAPGKGLKWMGWINTYTGEPTYADDFKGRFAFSLETSASTAYLQINNLKNEDMATYFCARNGNFGYYFDYWGQGTTLTVSS
VL: DVLMTQTPLSLPVSLGDQASFSCRSSQNIVHSNGNTYLEWYLQKPGQSPSLLIYKVSNRFSGVPDRFSGSGSGTDFTLKITRVEAEDLGVYYCFQGSHVPFTFGSGTKLEIK
notes: also called mo19H12
Consider B1, for which, in [1], the “% of cells in gate NK GaM PE+” value was 14.9%. Also, the “IC50 (read off the curve)” value in assay [2] is roughly 0.4 µg/mL. Further, the binding result in assay [3] is “no binding”; in assay [4], “no binding”; in [5] it was “no binding”; in assay [6], “no binding”; in assay [8], “binds”; in assay [9] it was “binds”. Further, the binding result in assay [10], in assay [11], in [12] and in assay [13] was “binds” each time. In assay [7], the “% of cells in gate CD4 GaM PE+” value came to 7.5%. Moreover, in assay [14], the Kd stood at 0.49 nM.

B2: antibody 22B2 (antibody, mouse IgG1, V domains shown)
VH: QIQLVQSGPELKKPGETVKISCKASGYTFTNYGMNWVKQAPGKGLKWMGWINTYTGEPTYADDFKGRFAFSLETSATTAYLQINNLKNEDMATYFCSRSFGSTYGDYWGQGTTLTVSS
VL: B1 VL with F21I, N28T, S50K, T81S, F101W, S105G
On to B2, for which the “% of cells in gate NK GaM PE+” value in [1] came to 11.6%. Further, the binding result in [3] is reported as “no binding”. The “% of cells in gate CD4 GaM PE+” value in assay [7] amounted to 7.7%. Moreover, the Kd in assay [14] came out at 2.2 nM.

B3: antibody 12B11 (antibody, V domains shown)
VH: QLVQSGPELKNPGETVKISCKASGYTFTNYGMNWVKQAPGKGLKWMGWINTYTGEPTYADDFKGRFAFSLETSASTAYLQINNLKNEDTATYFCAHGPWLAYWGQGTLVTVS
VL: DIKMTQSPSSMYASLGERVTITCKASQDINVYLSWFQQKPGKSPKTLIYRAIRLVDGVPSRFSGSGSGQDYSLTISSLDYEDMGIYYCLQYDELPYTFGGGTKLEIE
In the case of B3, the binding result is reported as “binds” in assay [15]; “no binding” in assay [16]; “no binding” in [17]; “no binding” in assay [5]; “no binding” in assay [6]; “binds” in assay [8]. In addition, the binding result in [18], in [9], in assay [10], in [19], in assay [11] and in [12] was “binds” in each case. Also, the binding result in assay [13] is “binds”.

B4: chimeric 15C11 of human IgG1 Fc isotype (antibody, V domains shown)
VH: EVKLEESGGGLVQPGGSMKLSCAASGFTFSDAWMDWVRQSPEKGLEWVAEIRSKANNHATYYAESVKGRFTISRDDSKSSVYLRMNSLRAEDTGIYYCTGGYYPVYWGQGTLVTVSA
VL: DIQMTQSPSSLSASLGGKVTITCKASQDINKNIAWYQHKPGKGPRLLIHYTSTLQPGFPSRFSGSGSGRDYSFSISNLEPEDLATYYCLQYDNLLTFGGGTKLEIK
notes: Human-mouse chimeric antibody with the variable regions of murine 15C11; also called chim15C11; Chim15C11
For the molecule B4, in assay [20], the Kd amounted to 0.22 nM and the koff was found to be 0.000108 s⁻¹. In assay [21], the Kd is 0.68 nM and the koff is 0.00029 s⁻¹.

B5: Hum23-K32-15C11 (antibody, V domains shown)
VH: EVQLVESGGGLVQPGGSLRLSCAASGFTFSDAWMDWVRQAPGKGLEWVGEIRSKANNHATYYAASVKGRFTISRDDSKNSLYLQMNSLKTEDTAVYYCTGGYYPVYWGQGTLVTVSS
VL: DIQMTQSPSSLSASVGDRVTITCKASQDINKNIAWYQHKPGKAPKLLIHYTSTLQPGVPSRFSGSGSGRDYTFTISSLQPEDIATYYCLQYDNLLTFGGGTKVEIK
notes: also called H2/L3
As to B5, in [20], the Kd amounted to 0.5 nM and the koff was found to be 0.00014 s⁻¹. Besides, in [21], the Kd worked out at 1.24 nM and the off-rate constant (koff) came to 0.000329 s⁻¹.

B6: Hum32-K32-15C11 (antibody, V domains shown)
VH: B5 VH with G49A, L81V
VL: B5 VL with R69T, Y71F
notes: also called H3/L2
With B6, in [20], the Kd was 0.51 nM and the koff amounted to 0.000104 s⁻¹. Besides, in assay [21], the Kd came to 1.29 nM and the off-rate (koff) amounted to 0.00025 s⁻¹.

B7: Hum12-K32-15C11 (antibody, V domains shown)
VH: B5 VH with E50R, Y61A
VL: B5 VL with R69T, Y71F
notes: also called H1/L2; H1-L2
Take B7: in assay [20], the Kd was determined as 1.63 nM and the koff came to 0.000109 s⁻¹. Besides, in assay [21], the Kd is 5.61 nM and the off-rate constant (koff) stood at 0.00132 s⁻¹.

B8: Hum33-K32-15C11 (antibody, V domains shown)
VH: B5 VH with G49A, L81V
VL: B5 VL
notes: also called H3/L3; H3-L3
Take B8: in assay [20], the Kd worked out at 0.33 nM and the koff turned out to be 7.8e-05 s⁻¹. In addition, in [21], the Kd came out at 0.78 nM and the koff came to 0.00018 s⁻¹.

B9: Hum22-K32-15C11 (antibody, V domains shown)
VH: B5 VH
VL: B5 VL with R69T, Y71F
notes: also called H2/L2
For the molecule B9, in [20], the Kd amounted to 0.65 nM and the koff turned out to be 0.000156 s⁻¹. In addition, in assay [21], the Kd was determined as 1.74 nM and the koff was 0.000385 s⁻¹.

B10: Hum13-K32-15C11 (antibody, V domains shown)
VH: B5 VH with E50R, Y61A
VL: B5 VL
notes: also called H1/L3
As to B10, in [20], the Kd was 1.13 nM and the koff worked out at 0.000286 s⁻¹. Besides, in assay [21], the Kd was 4.59 nM and the dissociation rate constant (koff) worked out at 0.00105 s⁻¹.
